Values joined by “and” are separate entries in the source; they are usually repeats but may differ in a detail not shown here. Identical values can stand only once.

The text below walks through data of paper PMC5218414 (PLoS ONE, 2017).

First the molecules themselves.
B1: matuzumab Fab fragment (Fab, V domains shown)
VH: QVQLVQSGAEVKKPGASVKVSCKASGYTFTSHWMHWVRQAPGQGLEWIGEFNPSNGRTNYNEKFKSKATMTVDTSTNTAYMELSSLRSEDTAVYYCASRDYDYAGRYFDYWGQGTLVTVSS
VL: DIQMTQSPSSLSASVGDRVTITCSASSSVTYMYWYQQKPGKAPKLLIYDTSNLASGVPSRFSGSGSGTDYTFTISSLQPEDIATYYCQQWSSHIFTFGQGTKVEIK
notes: Fab heavy chain of matuzumab; light chain of matuzumab; source: Expi293 transient expression, co-transfection of heavy and light chain vectors, purified (IMAC, Ni Sepharose Excel)
B2: duligotuzumab (DL11) Fab fragment (Fab, V domains shown)
VH: EVQLVESGGGLVQPGGSLRLSCAASGFTLSGDWIHWVRQAPGKGLEWLGEISAAGGYTDYADSVKGRFTISADTSKNTAYLQMNSLRAEDTAVYYCARESRVSFEAAMDYWGQGTLVTVSS
VL: DIQMTQSPSSLSASVGDRVTITCRASQDLATDVAWYQQKPGKAPKLLIYSASFLYSGVPSRFSGSGSGTDFTLTISSLQPEDFATYYCQQSEPEPYTFGQGTKVEIK
notes: Fab heavy chain of duligotuzumab; light chain of duligotuzumab; source: Expi293 transient expression, co-transfection of heavy and light chain vectors, purified (IMAC, Ni Sepharose Excel)
B3: necitumumab (IMC-11F8) Fab fragment (Fab, V domains shown)
VH: QVQLQESGPGLVKPSQTLSLTCTVSGGSISSGDYYWSWIRQPPGKGLEWIGYIYYSGSTDYNPSLKSRVTMSVDTSKNQFSLKVNSVTAADTAVYYCARVSIFGVGTFDYWGQGTLVTVSS
VL: EIVMTQSPATLSLSPGERATLSCRASQSVSSYLAWYQQKPGQAPRLLIYDASNRATGIPARFSGSGSGTDFTLTISSLEPEDFAVYYCHQYGSTPLTFGGGTKAEIK
notes: Fab heavy chain of necitumumab; light chain of necitumumab; source: Expi293 transient expression, co-transfection of heavy and light chain vectors, purified (IMAC, Ni Sepharose Excel)

In the experiment the target is T1, human epidermal growth factor receptor (EGFR) (Homo sapiens, UniProt P00533).
T1 construct: human epidermal growth factor receptor, used as a 'monovalent antigen' in solution
The experiment can be described thus: SPR; ProteOn XPR36 one-shot kinetics; antibodies amine-coupled onto GLC chips, EGFR injected as monovalent analyte for 3 min (5fold and 3fold series, top 56 nM; over matuzumab 3fold series, top 278 nM); 25°C, PBS + 0.01% Tween-20; global Langmuir model with mass transport; apparent. The conditions noted are these: both partners purified.
As usually defined, the koff is a measure of how fast the partners let go of each other. The kon is a measure of how fast the partners come together. For the molecule B1, the Kd was 93.1 nM and 92.6 nM; the off-rate (koff) was 0.034 s⁻¹ and 0.031 s⁻¹; the kon was 360000 M⁻¹ s⁻¹ and 340000 M⁻¹ s⁻¹.

For the molecule B2, the Kd was 1.9 nM and 1.7 nM; the koff is 0.0035 s⁻¹ and 0.003 s⁻¹; the kon is 1.9e+06 M⁻¹ s⁻¹ and 1.8e+06 M⁻¹ s⁻¹.

For B3, the Kd is 1.5 nM and 1.6 nM; the koff was 0.0036 s⁻¹ and 0.0059 s⁻¹; the on-rate (kon) was 3.9e+06 M⁻¹ s⁻¹ and 2.2e+06 M⁻¹ s⁻¹.
